Reference: patent US20120087899A1

Experiments:
[1] = biological target: Bone morphogenetic protein-2 (BMP-2) (Homo sapiens) (UniProt P12643); experiment: cell-based or functional assay
Sequence of UniProt P12643 (P12643 283-396, form in doubt): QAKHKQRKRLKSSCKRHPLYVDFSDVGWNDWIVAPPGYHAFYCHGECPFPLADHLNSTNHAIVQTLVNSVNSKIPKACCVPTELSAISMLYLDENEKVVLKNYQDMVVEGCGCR

| inhibition of BMP-2-induced ALP activity in C2C12 cells, noggin at 300 ng/mL, in the presence of heparin or HS5 (3 µg/mL) [1] [%] | inhibition of BMP-2-induced ALP activity in C2C12 cells, noggin at 300 ng/mL, no GAG [1] [%] | Substance | FXa activity (cleavage of chromogenic substrate S-2222), AT pre-incubated with HS5 (Antithrombin (AT)) | FXa activity (cleavage of chromogenic substrate S-2222), AT pre-incubated with heparin (Antithrombin (AT)) | FXa activity (cleavage of chromogenic substrate S-2222), AT pre-incubated with pHS or bHS (Antithrombin (AT)) |
| --- | --- | --- | --- | --- | --- |
| 20 | 70 | noggin (ligand) | – | – | – |
| – | – | Factor Xa (FXa) | HS5 did not activate AT at any doses tested | heparin (a known anticoagulant) dose dependently activated AT resulting in the inhibition of FXa | In the presence of pHS or bHS, AT significantly reduced FXa activity, but only at 3 µg/mL |
